Measurements taken from PMC10716131, “Structural and biophysical comparisons of the pomalidomide- and CC-220-induced interactions of SALL4 with cereblon” (Scientific Reports, 2023).

Target: T1, DDB1:CRBN complex, full-length human CRBN (residues 1–442) with N-terminal biotinylated Avi-tag, co-expressed … (human, UniProt Q96SW2 1-442; Q16531 1-1140, biotin on the Avi-tag (BirA, 100% efficiency))
T1 construct: cereblon (CRBN), human, full-length, residues 1–442; DDB1, human, residues 1–1140; A 6xGS linker stands between the non-cleavable Avi-tag and CRBN; The host is named (Sf21) only for the crystallisation construct; also called DDB1:N-avi-biotin-CRBN; DDB1:N-avi-CRBN; source: biotinylated with BirA; not shown: Avi-tag, N-terminal, kept
Assay: SPR; DDB1:N-avi-biotin-CRBN immobilised on a streptavidin sensor (~5000–7000 RU), Biacore 8k, ABA method; SALL4 zinc fingers in 2X dilution series with 5 μM pomalidomide throughout; PBS pH 7.2, 5% glycerol, total NaCl ~300 mM, 0.01% P20, 1 mM TCEP, 0.05% DMSO; 15 °C; 30 µL/minute; 1:1 kinetic modelling
Conditions: both partners purified

T1 sequence (Q96SW2 whole entry, chain 1 of 2, the tested form may be a part): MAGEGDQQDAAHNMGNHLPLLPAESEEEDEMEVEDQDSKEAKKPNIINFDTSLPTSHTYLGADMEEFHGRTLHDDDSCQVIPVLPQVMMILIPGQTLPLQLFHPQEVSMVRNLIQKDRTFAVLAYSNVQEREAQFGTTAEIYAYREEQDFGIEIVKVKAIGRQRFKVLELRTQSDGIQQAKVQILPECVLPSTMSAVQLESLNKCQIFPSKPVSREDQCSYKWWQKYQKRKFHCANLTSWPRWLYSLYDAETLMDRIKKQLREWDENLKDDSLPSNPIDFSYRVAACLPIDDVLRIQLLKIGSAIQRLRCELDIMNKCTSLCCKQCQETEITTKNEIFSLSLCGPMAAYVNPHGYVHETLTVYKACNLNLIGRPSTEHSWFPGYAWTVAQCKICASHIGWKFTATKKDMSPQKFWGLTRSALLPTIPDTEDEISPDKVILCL
T1 sequence (Q16531 whole entry, chain 2 of 2, the tested form may be a part): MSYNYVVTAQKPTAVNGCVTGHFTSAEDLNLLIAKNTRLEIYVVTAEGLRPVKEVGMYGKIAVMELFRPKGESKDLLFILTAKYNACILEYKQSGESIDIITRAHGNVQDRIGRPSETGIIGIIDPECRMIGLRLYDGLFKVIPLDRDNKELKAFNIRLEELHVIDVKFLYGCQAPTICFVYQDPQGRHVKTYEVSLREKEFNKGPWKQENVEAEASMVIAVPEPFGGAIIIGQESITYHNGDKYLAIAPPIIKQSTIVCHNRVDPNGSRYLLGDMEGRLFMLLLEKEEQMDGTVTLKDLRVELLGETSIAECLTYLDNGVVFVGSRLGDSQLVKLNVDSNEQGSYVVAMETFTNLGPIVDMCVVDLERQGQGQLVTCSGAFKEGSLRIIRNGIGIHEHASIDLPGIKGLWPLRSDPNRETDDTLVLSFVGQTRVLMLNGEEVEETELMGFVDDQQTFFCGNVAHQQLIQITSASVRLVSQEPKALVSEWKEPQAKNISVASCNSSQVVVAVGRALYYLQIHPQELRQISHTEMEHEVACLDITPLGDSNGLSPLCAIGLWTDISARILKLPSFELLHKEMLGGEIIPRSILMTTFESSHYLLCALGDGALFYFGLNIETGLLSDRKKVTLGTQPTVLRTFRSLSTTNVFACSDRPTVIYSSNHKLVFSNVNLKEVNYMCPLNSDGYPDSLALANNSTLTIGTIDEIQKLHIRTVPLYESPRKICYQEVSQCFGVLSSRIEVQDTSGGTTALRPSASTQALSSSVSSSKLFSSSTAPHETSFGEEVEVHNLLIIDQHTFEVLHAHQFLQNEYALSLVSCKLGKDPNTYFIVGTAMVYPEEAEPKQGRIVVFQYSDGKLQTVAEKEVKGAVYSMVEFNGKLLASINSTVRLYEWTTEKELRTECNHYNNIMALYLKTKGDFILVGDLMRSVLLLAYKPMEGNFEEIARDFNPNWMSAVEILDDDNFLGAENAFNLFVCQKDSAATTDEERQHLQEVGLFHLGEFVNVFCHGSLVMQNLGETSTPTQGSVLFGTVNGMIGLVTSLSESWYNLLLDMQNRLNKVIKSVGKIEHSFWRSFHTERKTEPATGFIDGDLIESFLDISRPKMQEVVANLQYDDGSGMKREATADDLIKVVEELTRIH

B1: Human SALL4 ZF1(370–409) (domain or fragment, UniProt Q9UJQ4 370-409, looked up)
chain: DVKPKDEAALYKHKCKYCSKVFGTDSSLQIHLRSHTGERP
notes: not shown: Twin-Strep-ZZ, N-terminal, cleaved
KD with pomalidomide: > 50 µM
